Residue numbers refer to the chain shown, from its start. Numbers in names are those of the source.
How the values were obtained:
BFL1ΔC L21A, Q16548 [1] = target: T1, BFL1ΔC L21A, Q16548; assay: TIRF single-molecule brightness analysis; conditions: chain shown with the change, 100% CL SLB, 0.5 nM BFL1∆Cg proteins, 1 h at room temperature, read off a plot
T1 chain: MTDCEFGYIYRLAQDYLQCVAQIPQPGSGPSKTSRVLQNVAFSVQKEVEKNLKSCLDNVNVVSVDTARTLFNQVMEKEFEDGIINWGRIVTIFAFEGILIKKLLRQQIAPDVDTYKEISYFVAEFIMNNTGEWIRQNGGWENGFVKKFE

BFL1ΔC L21A, Q16548 [2] = target: T1, BFL1ΔC L21A, Q16548; assay: FCCS; conditions: chain shown with the change; 100% CL GUV; parent: est. 37; read off a plot
[3] = target: the molecule itself; assay: single-molecule TIRF brightness analysis; BFL1ΔCg 0.5 nM incubated with LUV 1 h at room temperature, supported lipid bilayers; apoptotic-like membranes
BFL1ΔC R88D, Q16548 [4] = target: T2, BFL1ΔC R88D, Q16548; assay: TIRF single-molecule brightness analysis; conditions: chain shown with the change, 100% CL SLB, 0.5 nM BFL1∆Cg proteins, 1 h at room temperature, read off a plot
T2 chain: T1 chain with A21L, R88D

BFL1ΔC R88D, Q16548 [5] = target: T2, BFL1ΔC R88D, Q16548; assay: FCCS; conditions: chain shown with the change; 100% CL GUV; parent: est. 37; read off a plot
[6] = target: the molecule itself; assay: SEC; protein in the presence of 100%CL LUV

B1: BFL1ΔC (BFL1 lacking the C-terminal 24 residues, helix α9), Q16548 L21A (protein)
chain: T1 chain
BFL1ΔC L21A, Q16548 [1]; parent: est. 26
  other: occurrence of monomers (%): 41%
BFL1ΔC L21A, Q16548 [1]; parent: est. 73
  other: occurrence of dimers (%): 57%
BFL1ΔC L21A, Q16548 [2]
  other: %CC (cross-correlation, FCCS): 22%

B2: BFL1ΔC (BFL1 lacking the C-terminal 24 residues, helix α9) (domain or fragment)
chain: T1 chain with A21L
modifications: Alexa 488 (BFL1ΔCg) or Alexa 647 (BFL1ΔCr) label in FCCS, TIRF and GUV imaging, site not stated; unlabelled in SEC
notes: BFL1 (BCL2A1) lacking the C-terminal 24 residues (helix α9, TA motif); Expressed from the vector pNIC28-Bsa4; Labelled (g, r) and unlabelled forms of the same construct are kept as one molecule; the assay's format tells which was used; also called BFL1ΔCg; BFL1ΔCr
[3]
  stoichiometry N: 2

B3: BFL1ΔC (BFL1 lacking the C-terminal 24 residues, helix α9), Q16548 R88D (protein)
chain: T1 chain with A21L, R88D
BFL1ΔC R88D, Q16548 [4]; parent: est. 26
  other: occurrence of monomers (%): 27%
BFL1ΔC R88D, Q16548 [4]; parent: est. 73
  other: occurrence of dimers (%): 71%
BFL1ΔC R88D, Q16548 [5]
  other: %CC (cross-correlation, FCCS): 35%

B4: BFL1ΔC R88D (domain or fragment)
chain: T1 chain with A21L, R88D
modifications: Alexa 488 (g) or Alexa 647 (r) label in FCCS, site not stated; unlabelled in SEC and in the GUV retrotranslocation assay
notes: Same construct as m1 with one point mutation; also called BFL1ΔCg R88D; BFL1ΔCr R88D
[6]
  binding result: binds

From paper PMC6748131, “BFL1 modulates apoptosis at the membrane level through a bifunctional and multimodal mechanism showing key differences with BCLXL” (Cell Death and Differentiation, 2018)
